This is an account of results in patent US20030036108A1.

Test [1] concerns the target CD4 naturally expressed on Jurkat T cells (human) (UniProt P01730). The test can be described thus: cell-based or functional assay.
Test [2] deals with CXCR4 naturally expressed on Jurkat T cells (human) (UniProt P61073). The test can be described thus: cell-based or functional assay.
Chain of CXCR4 naturally expressed on Jurkat T cells (human) (P61073 whole entry): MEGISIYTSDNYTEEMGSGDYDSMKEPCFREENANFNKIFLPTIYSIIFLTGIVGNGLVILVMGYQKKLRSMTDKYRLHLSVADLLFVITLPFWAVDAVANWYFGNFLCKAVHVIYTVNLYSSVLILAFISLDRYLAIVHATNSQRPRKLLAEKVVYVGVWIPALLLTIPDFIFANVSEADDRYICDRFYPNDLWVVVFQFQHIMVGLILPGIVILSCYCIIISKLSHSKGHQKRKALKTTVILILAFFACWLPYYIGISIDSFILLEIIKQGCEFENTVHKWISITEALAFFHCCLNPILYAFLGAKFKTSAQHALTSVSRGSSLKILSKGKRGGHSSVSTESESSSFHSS

Take “gp143/HXB2, a carboxyl-terminus truncated form of the Env (gp160) of HIV-1 strain HXB2, expressed on CHO or 293T cells (from UniProt P04578 31-714)”: the fusion ratio (460 nm / 530 nm emission) of 293T cells expressing gp143/HXB2 with Jurkat cells in test [1] and in test [2] was 1.54 in each case.
